According to PMC3283256 (The Journal of Biological Chemistry, 2010):
Blank lines part the entries; values can stand above or below the binder they belong to.

Target: His-tagged N-WASP (rat, UniProt O08816 1-501)
Experiment: pull-down

Sequence of His-tagged N-WASP (O08816 whole entry): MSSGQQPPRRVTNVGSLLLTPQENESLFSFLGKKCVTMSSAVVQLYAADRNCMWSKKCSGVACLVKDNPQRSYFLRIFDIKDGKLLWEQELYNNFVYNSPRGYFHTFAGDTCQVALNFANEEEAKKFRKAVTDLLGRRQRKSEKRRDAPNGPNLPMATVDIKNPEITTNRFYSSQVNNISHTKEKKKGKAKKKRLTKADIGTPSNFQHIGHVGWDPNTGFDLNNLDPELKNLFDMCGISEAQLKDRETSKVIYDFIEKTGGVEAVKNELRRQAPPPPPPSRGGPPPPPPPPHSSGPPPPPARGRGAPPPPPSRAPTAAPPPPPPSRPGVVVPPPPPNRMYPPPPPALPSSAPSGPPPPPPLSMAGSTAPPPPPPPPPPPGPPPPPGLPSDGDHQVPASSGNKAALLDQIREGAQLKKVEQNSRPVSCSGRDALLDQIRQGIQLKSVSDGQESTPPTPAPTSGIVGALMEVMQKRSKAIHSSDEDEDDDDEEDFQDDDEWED

binding result: binds
B1: GST-Gas7 (natural protein, mouse, UniProt Q60780 1-421, looked up)
chain: MATALQKPGMVPPPPGEESQTVILPPGWHSYLSPQGRRYYVNTTTNETTWERPSSSPGISASPAPHRSSLPTTVNGYHASGTPAHPPETAHMSLRKSTGDSQNLGSSSPGRKQSKENTITINCVTFPHPDTMPEQQLLKPTEWSYCDYFWADKKDPQGNGTVAGFELLLQKQLKGKQMQKEMSEFIRERIKIEEEYAKNLAKLSQNSLAAQEEGSLGEAWAQVKKSLADEAEVHLKFSAKLHSEVEKPLMNFRENFKKDMKKCDHHIADLRKQLASRYASVEKARKALTERQKDLEMKTQQLEIKLSNKTEEDIKKARRKSTQAGDDLMRCVDLYNQAQSKWFEEMVTTTLELERLEVERVEMIRQHLCQYTQLRHETDMFNQSTVEPVDQLLRKVDPAKDRELWVREHKTGNIRPVDMEI

binding result: binds
B2: GST-Gas7WW2 (domain or fragment, mouse, UniProt Q60780 1-151, looked up)
chain: MATALQKPGMVPPPPGEESQTVILPPGWHSYLSPQGRRYYVNTTTNETTWERPSSSPGISASPAPHRSSLPTTVNGYHASGTPAHPPETAHMSLRKSTGDSQNLGSSSPGRKQSKENTITINCVTFPHPDTMPEQQLLKPTEWSYCDYFWA
